Experimental data published in publication PMC6053527 (Frontiers in Plant Science, 2018).
Blank lines part the entries; values can stand above or below the molecule they belong to.

Tests used:
[1] = target: T1, SyMDH (Synechocystis sp. PCC 6803, UniProt Q55383); assay: spectrophotometric assay at […] nm with effector; type: biochemical; conditions: read-out: % activity at 1 mM
T1 construct: gene mdh; full ORF in pGEX5X-1, N-terminal GST tag kept, E. coli expression, glutathione-Sepharose purification
T1 sequence (Q55383 1-324): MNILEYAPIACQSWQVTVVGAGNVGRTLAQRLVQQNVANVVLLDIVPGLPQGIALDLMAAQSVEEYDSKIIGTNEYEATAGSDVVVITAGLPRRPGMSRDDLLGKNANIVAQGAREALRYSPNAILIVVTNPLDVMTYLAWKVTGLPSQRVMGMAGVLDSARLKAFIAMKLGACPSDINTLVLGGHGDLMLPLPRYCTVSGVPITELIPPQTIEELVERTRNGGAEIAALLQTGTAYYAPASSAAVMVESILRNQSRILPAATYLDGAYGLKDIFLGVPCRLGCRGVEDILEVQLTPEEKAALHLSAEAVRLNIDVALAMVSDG

[2] = target: T1, SyMDH; assay: spectrophotometric assay at […] nm; fit to modified Michaelis-Menten equation; type: biochemical; conditions: substrate inhibition by NAD+; oxidative reaction, 4.0 mM malate, 100 mM potassium phosphate pH 8.0
[3] = substrate: O=C(O)C[C@H](O)C(=O)O; assay: purified protein; conditions: oxidative reaction, 8.0 mM NAD+, 100 mM potassium phosphate pH 8.0
[4] = substrate: O=C(O)CC(=O)C(=O)O; assay: purified protein; type: biochemical, Synechocystis sp. PCC 6803; conditions: reductive reaction, 0.1 mM NADH, 100 mM potassium phosphate pH 6.5; no added effector; pH 6.5
[5] = substrate: NC(=O)c1ccc[n+]([C@@H]2O[C@H](COP(=O)(O)OP(=O)(O)OC[C@H]3O[C@@H](n4cnc5c(N)ncnc54)[C@H](O)[C@@H]3O)[C@@H](O)[C@H]2O)c1; assay: purified protein; type: biochemical, Synechocystis sp. PCC 6803; conditions: oxidative reaction, 4.0 mM malate, 100 mM potassium phosphate pH 8.0; pH 8.0
[6] = substrate: NC(=O)C1=CN([C@@H]2O[C@H](COP(=O)(O)OP(=O)(O)OC[C@H]3O[C@@H](n4cnc5c(N)ncnc54)[C@H](O)[C@@H]3O)[C@@H](O)[C@H]2O)C=CC1; assay: purified protein; type: biochemical, Synechocystis sp. PCC 6803; conditions: reductive reaction, 0.1 mM oxaloacetate, 100 mM potassium phosphate pH 6.5; pH 6.5

- activity at 1000 µM [1]: ~170%
Molecule: O=C(O)/C=C/C(=O)O [fumarate]

- Ki [2]: 14.5 mM
Molecule: NC(=O)c1ccc[n+]([C@@H]2O[C@H](COP(=O)(O)OP(=O)(O)OC[C@H]3O[C@@H](n4cnc5c(N)ncnc54)[C@H](O)[C@@H]3O)[C@@H](O)[C@H]2O)c1 [NAD^+]

B1: SyMDH (Synechocystis sp. PCC 6803 substr. Kazusa) (protein)
chain: T1 sequence (Q55383 1-324)
notes: full ORF in pGEX5X-1, N-terminal GST tag kept, E. coli expression, glutathione-Sepharose purification
- Km [3]: 2600 µM
- kcat [3]: 0.43 s⁻¹
- Km [4]: 12 µM
- kcat [4]: 0.71 s⁻¹
- Km [5]: 580 µM
- kcat [5]: 0.21 s⁻¹
- Km [6]: 30 µM
- kcat [6]: 0.97 s⁻¹
